Test results taken from PMC3154745 (Chembiochem : a European journal of chemical biology, 2011).
Substitutions are numbered along the chain they refer to. Names may count otherwise. Like-named read-outs stand apart in the source and are kept apart here. Primed or numbered codes have the meaning given here. No end group written: not given here. fluorescein″ = fluorescein label at the N-terminus of the peptide; fluorescein = fluorescein group at the N-terminus

B1: HP1a-CSD (residues 131-206), wild type (domain or fragment, D. melanogaster, UniProt P05205 131-206, looked up)
chain: EQDTIPVSGSTGFDRGLEAEKILGASDNNGRLTFLIQFKGVDQAEMVPSSVANEKIPRMVIHFYEERLSWYSDNED
B2: HP1a-CSD E195Q (residues 131-206) (domain or fragment, D. melanogaster, UniProt P05205 131-206, looked up)
chain: B1 chain with E65Q
B3: HP1a-CSD W200A (residues 131-206) (domain or fragment, D. melanogaster, UniProt P05205 131-206, looked up)
chain: B1 chain with W70A
B4: HP1a-CSD S199E S202E double mutant (residues 131-206) (domain or fragment, D. melanogaster, UniProt P05205 131-206, looked up)
chain: B1 chain with S69E, S72E
B5: HP1a-CSDΔ204 (residues 131-203) (domain or fragment, D. melanogaster, UniProt P05205 131-203, looked up)
chain: EQDTIPVSGSTGFDRGLEAEKILGASDNNGRLTFLIQFKGVDQAEMVPSSVANEKIPRMVIHFYEERLSWYSD

Legend:
AUC [1] = molecular target: the molecule itself; test: AUC
AUC [2] = molecular target: the molecule itself; test: AUC; remark: listed apart in the source
[3] = molecular target: B3; test: fluorescence polarisation
[4] = molecular target: B5; test: fluorescence polarisation
[5] = molecular target: B2; test: fluorescence polarisation
[6] = molecular target: T1, HP1a-CSD A174E (residues 131-206) (D. melanogaster, UniProt P05205 131-206, A174E); test: fluorescence polarisation
T1 sequence (looked up): B1 chain with A44E

[7] = molecular target: B4; test: fluorescence polarisation
[8] = molecular target: B1; test: fluorescence polarisation
[9] = molecular target: T2, HP1a-CSD I191E (residues 131-206) (D. melanogaster, UniProt P05205 131-206, I191E); test: fluorescence polarisation
T2 sequence (looked up): B1 chain with I61E

[10] = molecular target: B1; test: fluorescence polarisation; remark: listed apart in the source
AUC [11] = molecular target: the molecule itself; test: AUC; remark: listed apart in the source
SEC = molecular target: the molecule itself; test: SEC
[12] = molecular target: B1; test: NMR titration

In the case of B1, the Kd (AUC [1]) is reported as 1.6 ± 0.4 µM and the Kd (AUC [2]) is reported as 3 ± 0.2 µM.

With fluorescein-QNISPRKLSVKINRRPYNKWLR [HP2 peptide Cys to Ser mutant (LSVKI), N-terminal fluorescein] the Kd [3] was > 500 µM, the Kd [4] was 4.9 ± 0.6 µM and the Kd [5] was 3.7 ± 0.4 µM. The Kd [6] was 1.26 ± 0.12 µM, the Kd [7] was 0.044 ± 0.007 µM and the Kd [8] was 0.3 ± 0.02 µM. For the same binder, the Kd [9] was > 400 µM.

For {fluorescein″}-QNISPRKLCVKINRRPYNKWLR [HP2 peptide wild type (LCVKI), N-terminal fluorescein], the Kd [8] was 0.14 ± 0.07 µM.

With fluorescein-TSRGSGDPRVKVFRGSSSGDY [PIWI peptide, N-terminal fluorescein] the Kd [3] was > 2000 µM, the Kd [4] was 60 ± 2 µM and the Kd [5] was 97 ± 12 µM. It also gave a Kd [6] of 101 ± 6 µM, a Kd [7] of 1.7 ± 0.1 µM and a Kd [8] of 20 ± 0.5 µM. For the same binder, the Kd [9] was > 2000 µM.

B2 gave a Kd (AUC [2]) of 4.3 ± 0.4 µM.

{fluorescein″}-PATTSPLVVLSNQLPLNSVAASY [AF10 peptide, N-terminal fluorescein]: binds [10].

B3 was tested, and the Kd (AUC [11]) was 5.8 ± 0.6 µM and the “stoichiometry N” value (SEC) was 2.

{fluorescein″}-SEGRRLYPLLPRISPQTALSIVANDLAESD [CG15356 peptide, N-terminal fluorescein]: binds [10].

For B4, the Kd (AUC [2]) was 19 ± 1 µM.

B5 gave a Kd (AUC [2]) of 2 ± 0.2 µM.

TSRGSGDPRVKVFRGSSSGDY [PIWI peptide as used in NMR]: binds [12].
